{"source": "paper PMC5018250", "about": "“Structure of the Bacterial Sex F Pilus Reveals an Assembly of a Stoichiometric Protein-Phospholipid Complex” (Cell, 2016)", "proteins": {"B1": {"name": "F TraA pilin (natural protein, E. coli (F plasmid; pOX38 in DH5alpha), UniProt P04737 52-121, looked up)", "chain": "AGSSGQDLMASGNTTVKATFGKDSSVVKWVVLAEVLVGAVMYMMTKNVKFLAGFAIISVFIAVGMAVVGL", "notes": "TraA pilin of the F pilus encoded by the F plasmid derivative pOX38; N terminus 4 aa longer than that of pED208 TraA and disordered in the maps; Stands in the pilus as a helical polymer; two filament populations (axial rise 12.5 A and 13.2 A); also called F pilin; F pilus subunit; source: produced in vivo from the pOX38-Cm plasmid in E. coli DH5alpha"}}, "biological_target": "the molecule itself", "assay": "cryo-EM structure; purified F pili in Tris-HCl, 200 mM NaCl, pH 8.0, vitrified; helical reconstruction (IHRSR), two classes with axial rise 12.5 A and 13.2 A, 5.0 A maps"}
{"protein": "B1", "values": [{"measurement": "binding result", "value": "binds"}]}
